Usually Kd stands for the concentration at which binding is half-saturated.

Experiment [1] has as its target CD3 on Jurkat cells (human) (UniProt P07766). The experiment can be described thus: binding to Jurkat cells (data not shown; Scatchard assay presumed).
Experiment [2] deals with human epidermal growth factor receptor 2 (HER2) on cells (human) (UniProt P04626). The experiment in a line: competitive Scatchard analysis, 125I-trastuzumab Fab tracer on SKBR-3 cells.

As to “HER2 T cell dependent bispecific antibody (HER2-TDB), huIgG1, knob arm humanized anti-HER2 4D5 (trastuzumab), hole arm humanized anti-CD3 UCHT1.v9”, the dissociation constant (Kd) was 4.7 nM in experiment [1] and 5.4 nM in experiment [2].

Source of the values: US20170008971A1.
